Values joined by “and” are separate entries in the source; they are usually repeats but may differ in a detail not shown here. Equal values may be shown once.
Assays:
Glu216 = Glu216 (UniProt position 216, GIFLAEIWAEA); experiment: kinetics; conditions: 70 °C; mixture of citrate, phosphate and glycine buffers (100 mM each); Enzyme turning over starch and maltose (activity assay); 0.5 U/mL purified enzyme
Asp186 = Asp186 (UniProt position 186, DGFRFDAAKHM); experiment: kinetics; conditions: 70 °C; mixture of citrate, phosphate and glycine buffers (100 mM each); Enzyme turning over starch and maltose (activity assay); 0.5 U/mL purified enzyme

4-alpha-glucanotransferase (TmGTase) W131G (Thermotoga maritima; W131G)
pKa (Glu216): 8.9 ± 0.1
pKa (Asp186): 4.7 ± 0.1 and 4.5 ± 0.09

4-alpha-glucanotransferase (TmGTase) truncated loop variant (Thermotoga maritima; del120-124;del128-131)
pKa (Glu216): 8.9 ± 0.1
pKa (Asp186): 4.6 ± 0.1

4-alpha-glucanotransferase (TmGTase), wild type (Thermotoga maritima)
pKa (Glu216): 8.9 ± 0.1
pKa (Asp186): 4.4 ± 0.1

Reference: publication PMC10480278
